One molecule from PMC9242963, “FFF-based high-throughput sequence shortlisting to support the development of aptamer-based analytical strategies” can be followed below.

This data set concerns the target lysozyme (UniProt P00698 19-147). Kind of data set: AF4-UV (asymmetrical flow field-flow fractionation); concentration-dependent; among highest affinity with A80; PBS-Mg2+ buffer (also mobile phase; composition, pH and temperature not given in the material); 10 uL of 5 uM aptamer + 10 uL of 5, 10, 25 or 50 uM protein (1:1 to 1:10); detection at 260 nm; n = 3. Conditions: protein: commercial; label: none.

lysozyme, sequence (P00698 19-147): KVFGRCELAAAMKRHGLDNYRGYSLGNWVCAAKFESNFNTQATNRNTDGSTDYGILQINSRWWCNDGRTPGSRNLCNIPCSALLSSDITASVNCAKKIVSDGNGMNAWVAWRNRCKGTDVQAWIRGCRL

B1: A40 (ssDNA)
DNA: GCAGCTAAGCAGGCGGCTCACAAAACCATTCGCATGCGGC
As to B1, the binding result is recorded as “binds”.
